# Paper PMC5343089, “^1H, ^15N, ^13C backbone resonance assignments of human soluble catechol O-methyltransferase in complex with S-adenosyl-L-methionine and 3,5-dinitrocatechol” (Biomolecular Nmr Assignments, 2016)
# Target: the molecule itself
# Assay: SEC + native gel or EMSA + other: mass spectrometry; Superdex 75 26/60, 50 mM Tris-HCl pH 7.5, 50 mM NaCl, 10 mM DTT, 4 °C; two separated peaks; native gel electrophoresis and mass spectrometry not shown
protein,measurement,value
"human soluble catechol O-methyltransferase (enzyme, UniProt P21964-2 1-221, looked up, Catechol O-methyltransferase, human, soluble isoform (S-COMT), EC 2.1.1.6; valine at the polymorphic position 108; 233 residues with the 12-residue tag, so 221 residues of S-COMT; Q belongs to the ENLYFQG site; 2H,15N,13C-labelled protein; Val108 allele; also called S-COMT; human S-COMT; source: E. coli BL21(DE3), pET21a, purified (His-Trap Ni-Sepharose, Superdex 75 size exclusion)) QGDTKEQRILNHVLQHAEPGNAQSVLEAIDTYCEQKEWAMNVGDKKGKIVDAVIQEHQPSVLLELGAYCGYSAVRMARLLSPGARLITIEINPDCAAITQRMVDFAGVKDKVTLVVGASQDIIPQLKKKYDVDTLDMVFLDHWKDRYLPDTLLLEECGLLRKGTVLLADNVICPGAPDFLAHVRGSSCFECTHYQSFLEYREVVDGLEKAIYKGPGSEAGP",stoichiometry N,2
